According to patent US20250297032A1 (CONCEPT TO MEDICINE BIOTECH, published 2025):
Values belong to the binder of their own block, whether it stands above or below them.

Assays:
[1] = biological target: T1, human FAPα-His tag (Sino biological) (human, UniProt Q12884 26-760); assay: competitive ELISA on coated human FAPα; competitor (detected): FAP-G52-Bio
T1 construct: Bought protein; also called human FAPα-His protein; not shown: His tag
T1 sequence (looked up): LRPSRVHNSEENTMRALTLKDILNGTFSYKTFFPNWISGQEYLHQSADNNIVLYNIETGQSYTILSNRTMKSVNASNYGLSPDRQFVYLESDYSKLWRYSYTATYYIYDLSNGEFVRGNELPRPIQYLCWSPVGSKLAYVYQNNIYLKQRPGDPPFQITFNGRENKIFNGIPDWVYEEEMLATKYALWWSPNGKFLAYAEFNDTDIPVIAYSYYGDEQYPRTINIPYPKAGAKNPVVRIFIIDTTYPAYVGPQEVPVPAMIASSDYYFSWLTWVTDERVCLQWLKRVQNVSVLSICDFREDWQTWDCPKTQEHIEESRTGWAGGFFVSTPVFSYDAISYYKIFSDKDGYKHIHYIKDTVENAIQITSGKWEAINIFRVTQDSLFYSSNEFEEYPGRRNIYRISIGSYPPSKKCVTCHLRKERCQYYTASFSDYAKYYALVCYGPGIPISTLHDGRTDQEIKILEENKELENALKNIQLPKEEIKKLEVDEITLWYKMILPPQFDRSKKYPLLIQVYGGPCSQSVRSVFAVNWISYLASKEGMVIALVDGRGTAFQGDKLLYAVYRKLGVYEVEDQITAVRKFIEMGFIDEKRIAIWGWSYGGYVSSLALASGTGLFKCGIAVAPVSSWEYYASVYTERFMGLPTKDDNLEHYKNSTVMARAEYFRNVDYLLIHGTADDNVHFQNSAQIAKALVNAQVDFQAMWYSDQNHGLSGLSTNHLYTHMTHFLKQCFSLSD
Experimental: (§1) Briefly, microtiter plates were coated with human FAPα proteins at 0.5 μg/ml in PBS, 100 μl/well at 4° C. overnight, then blocked with 150 μl/well of 1% BSA. Serial dilutions of chimeric antibodies as well as biotin-conjugated reference mAb were added to each well and incubated for 1 hour at RT. The plates were washed with PBS/Tween and then incubate with streptavidin-HRP for 15 mins at RT. After washing, the plates were developed with TMB substrate and analyzed by spectrophotometer at OD 450 nm. According to the competition ability to reference mAbs (Benchmark, or “BMK”), all tested FAPα mAbs binds to the similar epitope as shown in Table 5.

[2] = biological target: T1, human FAPα-His tag (Sino biological); assay: competitive ELISA on coated human FAPα; competitor (detected): FAP-G14-Bio
Experimental: (§2) Competitive ELISA was carried out to classify the FAPα mAbs based on the binding epitope to human FAPα.
as §1

[3] = biological target: T1, human FAPα-His tag (Sino biological); assay: competitive ELISA on coated human FAPα; competitor (detected): FAP-I38-Bio
Experimental: as §1

[4] = biological target: T1, human FAPα-His tag (Sino biological); assay: competitive ELISA on coated human FAPα; competitor (detected): FAP-J40-Bio
Experimental: as §1

[5] = biological target: T2, human FAPα on CHO-K1-hFAPα cells (human, UniProt Q12884 1-760); assay: flow cytometry on CHO-K1-hFAPα cells (MFI of PE); parameters: unit not given beside the values
T2 construct: whole, on cells; also called cell-surface FAPα
T2 sequence (looked up): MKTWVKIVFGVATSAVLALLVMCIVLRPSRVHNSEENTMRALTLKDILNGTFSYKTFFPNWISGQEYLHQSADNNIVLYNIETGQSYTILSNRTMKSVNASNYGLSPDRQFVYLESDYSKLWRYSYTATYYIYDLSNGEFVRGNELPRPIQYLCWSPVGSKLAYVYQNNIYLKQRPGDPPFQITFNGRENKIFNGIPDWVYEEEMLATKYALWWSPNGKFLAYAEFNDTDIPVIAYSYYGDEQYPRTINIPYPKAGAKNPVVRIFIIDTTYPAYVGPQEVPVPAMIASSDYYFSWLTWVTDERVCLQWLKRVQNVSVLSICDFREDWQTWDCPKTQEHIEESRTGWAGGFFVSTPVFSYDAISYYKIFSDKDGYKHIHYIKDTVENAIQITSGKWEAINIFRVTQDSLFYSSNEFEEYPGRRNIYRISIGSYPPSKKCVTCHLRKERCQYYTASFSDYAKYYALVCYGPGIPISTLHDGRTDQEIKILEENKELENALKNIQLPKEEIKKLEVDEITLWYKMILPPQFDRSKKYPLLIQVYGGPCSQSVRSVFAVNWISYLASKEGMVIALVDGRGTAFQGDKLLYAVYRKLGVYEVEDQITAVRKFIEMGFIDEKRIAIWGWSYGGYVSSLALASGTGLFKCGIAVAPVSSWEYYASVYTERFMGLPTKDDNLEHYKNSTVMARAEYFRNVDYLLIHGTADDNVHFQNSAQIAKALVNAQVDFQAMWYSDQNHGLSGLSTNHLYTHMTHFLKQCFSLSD
Experimental: (§3) To evaluate the cell-based binding property to human FAPα, the tested antibodies were analyzed for their binding to CHO-K1-hFAPα by FACS. A total number of 1×10⁵ CHO-K1-hFAPα cells in each well were incubated with 4-fold serial diluted antibodies starting from 3 μg/ml for 30 minutes at 4° C. in FACS buffer. After wash by FACS buffer, PE conjugated-anti-human IgG antibody was added to each well and incubated at 4° C. for 30 minutes. After wash, MFI of PE was evaluated by MACSQuant Analyzer 16.

[6] = biological target: T1, human FAPα-His tag (Sino biological); assay: SPR (Biacore T200), mAb captured on Protein A chip, human FAPα-His as analyte
Experimental: The binding of the tested antibodies to recombinant FAPα protein (human FAPα-his tag) was tested with Biacore using a capture method. The mAbs were captured using Protein A chip. A serial dilution of human FAPα-his tag protein was injected over captured antibody for 3 mins at a flow rate of 30 μl/min. The antigen was allowed to dissociate for 800s. All the experiments were carried out on a Biacore T200. Data analysis was carried out using the Biacore T200 evaluation software.

[7] = biological target: T1, human FAPα-His tag (Sino biological); assay: competitive ELISA on coated human FAPα; competitor (detected): FAPα (BMK)-Bio
Experimental: as §1

[8] = biological target: T1, human FAPα-His tag (Sino biological); assay: ELISA, coated human FAPα-His
Experimental: Briefly, microtiter plates were coated with human FAPα-His protein at 0.5 ug/ml in PBS, 100 μl/well at 4° C. overnight, then blocked with 150 μl/well of 1% BSA. Three-fold dilutions of tested antibodies starting from 1 μg/ml were added to each well and incubated for 1 hour at 37° C. The plates were washed with PBS/Tween and then incubated with Anti-Human IgG (H&L) (GOAT) Antibody Peroxidase Conjugated for 30 mins at 37° C. After washing, the plates were developed with TMB substrate and analyzed by spectrophotometer at OD 450 nm. […] FAP-4B9 clone from Roche was served as positive control which labeled as FAPα-BMK.

[9] = biological target: T1, human FAPα-His tag (Sino biological); assay: competitive ELISA on coated human FAPα; competitor (detected): FAP-I37-Bio
Experimental: as §2, §1

[10] = biological target: T1, human FAPα-His tag (Sino biological); assay: competitive ELISA on coated human FAPα; competitor (detected): FAP-I30-Bio
Experimental: as §1

[11] = biological target: T2, human FAPα on CHO-K1-hFAPα cells; assay: flow cytometry on CHO-K1-hFAPα cells
Experimental: as §3

[12] = biological target: T1, human FAPα-His tag (Sino biological); assay: competitive ELISA on coated human FAPα; biotinylated mAb alone, no competing Ab (row '0')
Experimental: as §1

mouse FAPα-His protein = biological target: T3, mouse FAPα-His protein (mouse, UniProt P97321 26-761, limits assumed); assay: ELISA, plate coated with mouse FAPα-His, anti-human IgG-HRP, OD 450 nm
T3 construct: not shown: His tag
T3 sequence (looked up): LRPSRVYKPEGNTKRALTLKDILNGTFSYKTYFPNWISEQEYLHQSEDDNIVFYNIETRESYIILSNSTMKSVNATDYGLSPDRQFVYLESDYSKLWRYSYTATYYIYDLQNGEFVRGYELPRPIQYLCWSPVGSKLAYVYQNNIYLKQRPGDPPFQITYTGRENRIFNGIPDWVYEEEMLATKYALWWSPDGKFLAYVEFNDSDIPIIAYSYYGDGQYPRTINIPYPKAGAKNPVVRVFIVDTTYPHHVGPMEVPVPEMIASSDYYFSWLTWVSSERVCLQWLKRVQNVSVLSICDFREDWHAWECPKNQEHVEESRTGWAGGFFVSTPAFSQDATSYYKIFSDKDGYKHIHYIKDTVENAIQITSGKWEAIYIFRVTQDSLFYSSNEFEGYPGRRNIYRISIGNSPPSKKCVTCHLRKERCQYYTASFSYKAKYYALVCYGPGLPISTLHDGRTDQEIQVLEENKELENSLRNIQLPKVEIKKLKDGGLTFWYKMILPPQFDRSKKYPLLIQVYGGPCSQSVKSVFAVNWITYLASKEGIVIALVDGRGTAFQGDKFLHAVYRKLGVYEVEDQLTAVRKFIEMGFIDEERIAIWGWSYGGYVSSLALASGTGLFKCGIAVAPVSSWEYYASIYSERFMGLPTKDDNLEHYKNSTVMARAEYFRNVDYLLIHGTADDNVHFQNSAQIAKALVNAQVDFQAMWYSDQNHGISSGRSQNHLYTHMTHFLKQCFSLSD
Experimental: Briefly, microtiter plates were coated with mouse FAPα-His protein at 0.5 ug/ml in PBS, 100 μl/well at 4° C. overnight, then blocked with 150 μl/well of 1% BSA. Three-fold dilutions of tested antibodies starting from 1 μg/ml were added to each well and incubated for 1 hour at 37° C. The plates were washed with PBS/Tween and then incubated with Anti-Human IgG (H&L) (GOAT) Antibody Peroxidase Conjugated for 30 mins at 37° C. After washing, the plates were developed with TMB substrate and analyzed by spectrophotometer at OD 450 nm.

OD 450 nm [1]: 0.176 OD 450 nm | OD 450 nm [2]: 0.149 OD 450 nm | OD 450 nm [3]: 0.396 OD 450 nm | OD 450 nm [4]: 0.226 OD 450 nm | Cmax [5]: 189 | Kd [6]: 1.12 nM | koff [6]: 0.000116 s⁻¹ | kon [6]: 103000 M⁻¹ s⁻¹ | OD 450 nm [7]: 0.154 OD 450 nm | EC50 [8]: 4.89 ng/mL | OD 450 nm [9]: 0.282 OD 450 nm | OD 450 nm [10]: 0.22 OD 450 nm | EC50 [11]: 0.026 ng/mL | OD 450 nm [12]: 1.21 OD 450 nm
B1: I38 (antibody, V domains shown)
VH: EVQLVQSGAEVKEPGVSVKVSCKASGYTFASYGLSWVRLAPGQGLQWMGWISPYTPNPIYAPNFRDKVILTTDRSTNTAYLEVRSLRSDDTGLYYCARNHWVGRPTRAFDLWGQGTMVTVSA
VL: EIVLTQSPGTLSLSPGERATLSCRASQTVSITHLAWYQQKPGQAPRLLTYGASARATGIPDRFSVSGSGTDFTLTITRLEPEDFAVYYCQHYGSSITFGGGTKVEIK
notes: Tested as a mAb; also called FAP-I38

OD 450 nm [1]: 0.283 OD 450 nm | OD 450 nm [2]: 0.358 OD 450 nm | OD 450 nm [3]: 0.466 OD 450 nm | OD 450 nm [4]: 0.298 OD 450 nm | Kd [6]: 0.446 nM | koff [6]: 1.81e-05 s⁻¹ | kon [6]: 40500 M⁻¹ s⁻¹ | binding result (mouse FAPα-His protein): no binding (tested: 1000 ng/ml) | OD 450 nm [7]: 0.304 OD 450 nm | EC50 [8]: 9.48 ng/mL | OD 450 nm [9]: 0.399 OD 450 nm | OD 450 nm [10]: 0.302 OD 450 nm | OD 450 nm [12]: 1.26 OD 450 nm
B2: G52 (antibody, V domains shown)
VH: EVQLLESGGDLVQPGGSLRLSCAASGFTFSSYAMSWVRQAPGKGLEWVSGISNGGDSIAYADSVKGRFTVFRDNAKNTLYLQMNSLRAEDTAIYYCARGNYYAHDDWGQGTLVTVSA
VL: DIQLTQSPSSVSASVGDRVTITCRASQGVGSWLAWYQQKPGKPPKLLIYAASSLQSGVPSRFSGSGSGTDFTLTISSLQPEDFATYYCQQANSFPLTFGGGTKVEIK
notes: Tested as a mAb; also called FAP-G52; FAP-G52-Bio (biotin-conjugated form)

Cmax [5]: 149 | Kd [6]: 1.78 nM | koff [6]: 0.000594 s⁻¹ | kon [6]: 333000 M⁻¹ s⁻¹ | binding result (mouse FAPα-His protein): no binding (tested: 1000 ng/ml) | EC50 [8]: 3.94 ng/mL | EC50 [11]: 0.029 ng/mL
B3: J59 (antibody, V domains shown)
VH: QVQLLESGGGVVQPGRSLRLSCAASGFTFSSYGMHWVRQAPGKGLEWVAVISYDGSNKYYADSVKGRFTISRDNSKNTLYLQMNSLRADDTAVYYCARESYTGLGSFLHWGQGTLVTVSA
VL: NIQLTQSPSSLSASVGDRVTITCRASQTISNYLNWYQQKPGKAPKLLISAASSLQGGVPSRFSGSGSGTDFTLAISSLQPEDSATYYCQYWGTFGQGTKLEIK
notes: Tested as a mAb
